Assay results published in US8420051B2, “Muteins of hNGAL and related proteins with affinity for a given target” (Technische Universitaet Meunchen, priority 2008, dated 2013).
Read-outs that look alike come from different tables or passages of the source.

Assays:
[1] = biological target: selected hNGAL muteins from the library randomized at positions 33, 36, 41, 52, 54, 68, 70, 79, 81, 134, 136 and 138 (Homo sapiens, UniProt P80188); assay: ELISA, hexachloronorbornene hapten; type: binding; details: preliminary, data not shown
Chain of selected hNGAL muteins from the library randomized at positions 33, 36, 41, 52, 54, 68, 70, 79, 81, 134, 136 and 138 (P80188 21-198, stated change not applied): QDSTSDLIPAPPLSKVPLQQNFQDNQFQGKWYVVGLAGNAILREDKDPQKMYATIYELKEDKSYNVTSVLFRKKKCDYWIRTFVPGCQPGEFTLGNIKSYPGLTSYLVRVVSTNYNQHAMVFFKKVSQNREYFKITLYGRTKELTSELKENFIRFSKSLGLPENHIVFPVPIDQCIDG
Text: The hNGAL library obtained in Example 2 was used to generate muteins having affinity to a hexachloronorbonene hapten. In more detail, the hexachloronorbornene hapten used was hexachloronorbornene N—(CH2)5—COOH the synthesis of which was reported by Hilvert et al., J. Am. Chem. Soc. 1989, Vol. 111, 9261-9262 (compound 2 in FIG. 1 of Hilvert et al) which represents a transition state analogue for the [4+2] Diels-Alder reaction (see also, Xu et al., Science, 1999, Vol. 286, 2345-2348). Generation of the hNGAL muteins were carried out essentially in accordance with the experimental procedure as described in Example 3 above and muteins with binding activity to the to hexachloronorbornene hapten were isolated and characterized by ELISA.

[2] = biological target: T1, hNGAL mutein CL31, SEQ ID NO: 31 (L1 + V44M/N65D/G86S/S87P/S99N/L107F) (Homo sapiens, UniProt P80188, C107P/D67E/D97E/E64M/G106S/I100T/I61A/I75T/K154S/K66P/K70L/K95M/L127F/L56R/L62P/L90R/M71L/N85D/P68L/Q48H/Q69L/R101M/R63P/S119N/S147Q/S88A/T156S/T165A/T74Q/V53Q/W99L/Y158L/Y72T); assay: SPR (Biacore), immobilized Y•DTPA-RNase; type: binding
T1 construct: the mature hNGAL protein and the C-terminal Strep-tag II; Strep-tag II (C); OmpA signal peptide (N, cleaved yes); made in house; host or cells: E. coli (periplasm)
T1 sequence (P80188 21-198 with the stated changes): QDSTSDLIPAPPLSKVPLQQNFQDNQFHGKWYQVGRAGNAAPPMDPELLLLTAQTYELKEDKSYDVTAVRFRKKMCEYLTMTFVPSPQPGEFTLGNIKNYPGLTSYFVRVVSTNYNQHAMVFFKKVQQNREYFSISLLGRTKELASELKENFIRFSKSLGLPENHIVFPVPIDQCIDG
Experimental: FIG. 2E depicts the kinetic real time analysis of hNGAL variant CL31 measured on a Biacore instrument at a flow rate of 25 μl/min. The Y•DTPA-RNase conjugate was coupled via amine chemistry to a CM5 sensor chip (ΔRU=300), and the purified hNGAL variant CL31 was applied at varying concentrations as indicated. The measured signal is shown as a gray line and the fitted curve as a black line in each case.
(§1) Real time analysis of hNGAL variants was performed on a BIAcore X system (BIAcore, Uppsala, Sweden) using PBS/t (PBS containing 0.005% (v/v) Tween 20) as running buffer. 5 to 27 μg/ml solutions of the Me•DTPA-RNase conjugate in 10 mM Na-acetate, pH 5.0 were immobilized on a CM5 chip using standard amine coupling chemistry, resulting in a ligand density of 240 to 1800 resonance units (RU). The purified hNGAL variant was applied at a flow rate of 5 or 25 μl/min at concentrations of 0.5 up to 500 nM. The sensorgrams were corrected by subtraction of the corresponding signals measured for the control channel, which had been activated and blocked with ethanolamine. Kinetic data evaluation was performed by global fitting with BIAevaluation software V 3.0 (Karlsson et al. (1991) J. Immunol. Methods 145, 229-240). Alternatively, the plateau values at the end of the association phase (after 200 s) were plotted against the applied protein concentration and fitted as in the ELISA (see above) to determine the equilibrium dissociation constants (KO.

[3] = biological target: T2, hNGAL mutein Ya6, SEQ ID NO: 8 (Tb7.N9.N34 with Thr136Ser) (Homo sapiens, UniProt P80188, C107S/I100T/I61A/K154S/L56R/L90R/Q48H/R101M/S147Q/S88A/T156S/T165A/T74Q/V53Q/W99L/Y158L/Y72T); assay: SPR (Biacore), immobilized Me•DTPA-RNase; type: binding; details: 5 μl/min; for Kd: from the kinetic analysis, read-out: KD
T2 construct: the mature hNGAL protein and the C-terminal Strep-tag II; Strep-tag II (C); OmpA signal peptide (N, cleaved yes); made in house; host or cells: E. coli BL21 or TG1-F- (periplasm), plasmid pNGAL15
T2 sequence (P80188 21-198 with the stated changes): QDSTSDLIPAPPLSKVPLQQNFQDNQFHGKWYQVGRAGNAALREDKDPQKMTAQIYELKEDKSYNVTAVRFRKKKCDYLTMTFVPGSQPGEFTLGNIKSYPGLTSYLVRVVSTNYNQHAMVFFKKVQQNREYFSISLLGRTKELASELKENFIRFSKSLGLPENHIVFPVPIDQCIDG
Experimental: as §1
(§2) Finally, the hNGAL variants were analyzed by SPR using a Biacore CM-5 chip with the covalently attached Y-DTPA-RNaseA conjugate and applying the purified recombinant proteins (Table 3). […] The improved KD values result primarily from slower ligand dissociation.

[4] = biological target: T3, hNGAL mutein Tb7.N9, SEQ ID NO: 6 (Tb7 + A79L/I80T) (Homo sapiens, UniProt P80188, C107S/I100T/I61A/K154S/L56R/L90R/Q48H/R101M/S88A/T165A/T74Q/V53Q/W99L/Y158L/Y72T); assay: SPR (Biacore), immobilized Me•DTPA-RNase; type: binding; details: 5 μl/min
T3 construct: the mature hNGAL protein and the C-terminal Strep-tag II; OmpA signal peptide (N, cleaved yes); made in house; host or cells: E. coli BL21 or TG1-F- (periplasm), plasmid pNGAL15
T3 sequence (P80188 21-198 Q48H/V53Q/L56R/I61A/Y72T/T74Q/S88A/L90R/W99L/I100T/R101M/C107S/K154S/Y158L/T165A): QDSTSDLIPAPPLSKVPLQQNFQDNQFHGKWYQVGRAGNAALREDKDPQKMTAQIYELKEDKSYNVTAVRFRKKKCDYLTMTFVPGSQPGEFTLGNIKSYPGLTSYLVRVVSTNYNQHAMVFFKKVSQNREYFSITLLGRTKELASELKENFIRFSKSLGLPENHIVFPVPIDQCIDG
Experimental: as §1, §2

[5] = biological target: T4, hNGAL mutein Tb7.N9.N34, SEQ ID NO: 7 (Tb7.N9 + S127Q) (Homo sapiens, UniProt P80188, C107S/I100T/I61A/K154S/L56R/L90R/Q48H/R101M/S147Q/S88A/T165A/T74Q/V53Q/W99L/Y158L/Y72T); assay: SPR (Biacore), immobilized Me•DTPA-RNase; type: binding; details: 5 μl/min
T4 construct: the mature hNGAL protein and the C-terminal Strep-tag II; Strep-tag II (C); OmpA signal peptide (N, cleaved yes); made in house; host or cells: E. coli BL21 or TG1-F- (periplasm), plasmid pNGAL15
T4 sequence (P80188 21-198 with the stated changes): as the sequence (P80188 21-198 Q48H/V53Q/L56R/I61A/Y72T/T74Q/S88A/L90R/W99L/I100T/R101M/C107S/K154S/Y158L/T165A) above, with S127Q counted along it
Experimental: as §1, §2

[6] = biological target: T5, human neutrophil gelatinase-associated lipocalin (hNGAL, lipocalin 2, P80188), wild type, SEQ ID NO: 1 (Homo sapiens, UniProt P80188); assay: SPR (Biacore), immobilized Me•DTPA-RNase; type: binding; details: immobilized Y-DTPA-RNaseA
T5 construct: the mature hNGAL protein and the C-terminal Strep-tag II; OmpA signal peptide (N, cleaved yes); made in house; host or cells: E. coli BL21 or TG1-F- (periplasm), plasmid pNGAL14
T5 sequence (P80188 21-198, one chain of several): as the sequence (P80188 21-198, stated change not applied) above
Experimental: as §1, §2

[7] = biological target: T6, hNGAL mutein Tb7, SEQ ID NO: 2 (Gln28His, Val33Gln, Leu36Arg, Ile41Ala, Tyr52Thr, Thr54Gln, Ser68Ala, Leu70Arg, Trp79Ala, Arg81Met, Cys87Ser, Lys134Ser, Tyr138L (Homo sapiens, UniProt P80188, C107S/I61A/K154S/L56R/L90R/Q48H/R101M/S88A/T165A/T74Q/V53Q/W99A/Y158L/Y72T)); assay: SPR (Biacore), immobilized Me•DTPA-RNase; type: binding; details: 5 μl/min; for Kd: from the kinetic analysis, read-out: KD
T6 construct: the mature hNGAL protein and the C-terminal Strep-tag II; OmpA signal peptide (N, cleaved yes); made in house; host or cells: E. coli BL21 or TG1-F- (periplasm), plasmid pNGAL15
T6 sequence (P80188 21-198 Q48H/V53Q/L56R/I61A/Y72T/T74Q/S88A/L90R/W99A/R101M/C107S/K154S/Y158L/T165A): as the sequence (P80188 21-198 Q48H/V53Q/L56R/I61A/Y72T/T74Q/S88A/L90R/W99L/I100T/R101M/C107S/K154S/Y158L/T165A) above, with L79A, T80I counted along it
Experimental: as §1, §2

[8] = test system: hNGAL mutein Ya6, SEQ ID NO: 8 (Tb7.N9.N34 with Thr136Ser); assay: SPR (Biacore), immobilized Me•DTPA-RNase; type: binding, human; details: vs parental Tb7
Experimental: as §1, §2

[9] = test system: hNGAL mutein Yd5, SEQ ID NO: 9 (Tb7.N9.N34 + D77E/T136S); assay: SPR (Biacore), immobilized Me•DTPA-RNase; type: binding, human; details: vs parental Tb7
Experimental: as §1, §2

[10] = biological target: T7, hNGAL mutein Yd5, SEQ ID NO: 9 (Tb7.N9.N34 + D77E/T136S) (Homo sapiens, UniProt P80188, C107S/D97E/I100T/I61A/K154S/L56R/L90R/Q48H/R101M/S147Q/S88A/T156S/T165A/T74Q/V53Q/W99L/Y158L/Y72T); assay: SPR (Biacore), immobilized Me•DTPA-RNase; type: binding; details: for Kd: from the kinetic analysis, read-out: KD
T7 construct: the mature hNGAL protein and the C-terminal Strep-tag II; OmpA signal peptide (N, cleaved yes); made in house; host or cells: E. coli BL21 or TG1-F- (periplasm), plasmid pNGAL15
T7 sequence (P80188 21-198 with the stated changes): as the sequence (P80188 21-198 Q48H/V53Q/L56R/I61A/Y72T/T74Q/S88A/L90R/W99L/I100T/R101M/C107S/K154S/Y158L/T165A) above, with D77E, S127Q, T136S counted along it
Experimental: as §1, §2

[11] = biological target: T8, hNGAL mutein C26, SEQ ID NO: 10 (Yd5 + L42P/P48L/Q49L/I55T (155T [sic])/K75M) (Homo sapiens, UniProt P80188, C107S/D97E/I100T/I61A/I75T/K154S/K95M/L56R/L62P/L90R/P68L/Q48H/Q69L/R101M/S147Q/S88A/T156S/T165A/T74Q/V53Q/W99L/Y158L/Y72T); assay: SPR (Biacore), immobilized Me•DTPA-RNase; type: binding
T8 construct: the mature hNGAL protein and the C-terminal Strep-tag II; OmpA signal peptide (N, cleaved yes); made in house; host or cells: E. coli BL21 or TG1-F- (periplasm), plasmid pNGAL15
T8 sequence (P80188 21-198 with the stated changes): as the sequence (P80188 21-198 Q48H/V53Q/L56R/I61A/Y72T/T74Q/S88A/L90R/W99L/I100T/R101M/C107S/K154S/Y158L/T165A) above, with L42P, P48L, Q49L, I55T, K75M, D77E, S127Q, T136S counted along it
Experimental: FIG. 2D depicts the kinetic real time analysis of hNGAL variant C26 measured on a Biacore instrument. The Y•DTPA-RNase conjugate was coupled via amine chemistry to a CM5 sensor chip (ΔRU=240) and the purified hNGAL variant C26 was applied at varying concentrations. The measured signal is shown as a grey line whereas the curve fit is depicted as a black line in each case.
as §1, §2

[12] = biological target: T9, hNGAL mutein L1, SEQ ID NO: 28 (C26 + R43P/E44V/K46P/D47E/K50L/M51L) (Homo sapiens, UniProt P80188, C107S/D67E/D97E/E64V/I100T/I61A/I75T/K154S/K66P/K70L/K95M/L56R/L62P/L90R/M71L/P68L/Q48H/Q69L/R101M/R63P/S147Q/S88A/T156S/T165A/T74Q/V53Q/W99L/Y158L/Y72T); assay: SPR (Biacore), immobilized Y-DTPA-RNaseA; type: binding
T9 construct: the mature hNGAL protein and the C-terminal Strep-tag II; Strep-tag II (C); OmpA signal peptide (N, cleaved yes); made in house; host or cells: E. coli (periplasm)
T9 sequence (P80188 21-198 with the stated changes): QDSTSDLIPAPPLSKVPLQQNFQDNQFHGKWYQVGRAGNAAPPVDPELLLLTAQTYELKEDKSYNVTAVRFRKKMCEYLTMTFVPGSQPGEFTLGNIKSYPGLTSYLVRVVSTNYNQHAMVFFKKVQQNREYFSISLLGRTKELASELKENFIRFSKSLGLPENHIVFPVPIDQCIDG
Experimental: as §1
The new hNGAL variant L1 was analyzed by SPR as in Example 8 using a Biacore CM-5 chip with the covalently attached Y-DTPA-RNaseA conjugate and applying the purified recombinant protein.

[13] = read-out: affinity to the metal chelate ligand
[14] = from the kinetic analysis, read-out: KD

Molecule: O=C(O)CCCCCN1C(=O)C2C(C1=O)C1(Cl)C(Cl)=C(Cl)C2(Cl)C1(Cl)Cl (stereo not shown) [hexachloronorbornene hapten, hexachloronorbornene N—(CH2)5—COOH]
- KD [1]: at least micromolar

B1: Y^3+•DTPA-RNase: p-SCN-Bn-CHX-A″-DTPA covalently coupled to bovine ribonuclease A (about 1:1), charged with Y^3+; ligand is the chelate group (conjugate, UniProt P61823 27-150, looked up)
Ribonuclease pancreatic: KETAAAKFERQHMDSSTSAASSSNYCNQMMKSRNLTKDRCKPVNTFVHESLADVQAVCSQKNVACKNGQTNCYQSYSTMSITDCRETGSSKYPNCAYKTTQANKHIIVACEGNPYVPVHFDASV
modifications: CHX-A''-DTPA chelate with Y3+
notes: p-SCN-Bn-CHX-A″-DTPA covalently coupled to bovine ribonuclease A (about 1:1), charged with Y^3+; ligand is the chelate group
- association rate constant [2]: 446000 M⁻¹ s⁻¹
- dissociation rate constant [2]: 0.000106 s⁻¹
- half life of dissociation [2]: ca. 1.8 h
- Kd [2, 13]: 0.237 nM
- koff [3]: 0.00553 s⁻¹
- kon [3]: 1.72e+06 M⁻¹ s⁻¹
- Kd ([3]; listed as Y-DTPA-RNaseA): ~3 nM
- Kd [3]: 3.2 nM
- koff [4]: 0.023 s⁻¹
- kon [4]: 1.61e+06 M⁻¹ s⁻¹
- Kd [4, 14]: 14.3 nM
- koff [5]: 0.0208 s⁻¹
- kon [5]: 1.57e+06 M⁻¹ s⁻¹
- Kd [5, 14]: 13.2 nM
- binding activity [6]: did not exhibit any significant binding activity
- koff [7]: 0.1 s⁻¹
- kon [7]: 998000 M⁻¹ s⁻¹
- Kd ([7]; listed as Y-DTPA-RNaseA): 75 to 100 nM
- Kd [7]: 100 nM
- affinity improvement over Tb7 [8]: approximately 30 -fold
- affinity improvement over Tb7 [9]: approximately 30 -fold
- koff ([10]; 5 μl/min): 0.00345 s⁻¹
- kon ([10]; 5 μl/min): 984000 M⁻¹ s⁻¹
- Kd ([10]; 5 μl/min, listed as Y-DTPA-RNaseA): ~3 nM
- Kd ([10]; 5 μl/min): 3.5 nM
- τ1/2 ([10]; half life of dissociation, listed as Y-DTPA-RNaseA): ca. 200 s
- koff ([11]; 5 μl/min): 0.000704 s⁻¹
- kon ([11]; 5 μl/min): 2.5e+06 M⁻¹ s⁻¹
- Kd ([11]; 5 μl/min, from the kinetic analysis, read-out: KD): 0.282 nM
- Kd [11, 13]: 0.282 nM
- Kd [12]: 0.713 nM
- association rate constant [12]: 296000 M⁻¹ s⁻¹
- dissociation rate constant [12]: 0.000211 s⁻¹
